Consider 21 molecules from patent publication US20260297200 (published 2026).

As a reminder, the EC50 is the concentration at which the effect is half-maximal. Higher therefore signals lower potency in that assay. What is called Kd is the equilibrium constant for the complex coming apart.

Positions count from the first letter of the chain named. Bounds are passed on as bounds.

Sequences and labels used below:
T1: mouse EGFR-His (mouse)
T1 chain: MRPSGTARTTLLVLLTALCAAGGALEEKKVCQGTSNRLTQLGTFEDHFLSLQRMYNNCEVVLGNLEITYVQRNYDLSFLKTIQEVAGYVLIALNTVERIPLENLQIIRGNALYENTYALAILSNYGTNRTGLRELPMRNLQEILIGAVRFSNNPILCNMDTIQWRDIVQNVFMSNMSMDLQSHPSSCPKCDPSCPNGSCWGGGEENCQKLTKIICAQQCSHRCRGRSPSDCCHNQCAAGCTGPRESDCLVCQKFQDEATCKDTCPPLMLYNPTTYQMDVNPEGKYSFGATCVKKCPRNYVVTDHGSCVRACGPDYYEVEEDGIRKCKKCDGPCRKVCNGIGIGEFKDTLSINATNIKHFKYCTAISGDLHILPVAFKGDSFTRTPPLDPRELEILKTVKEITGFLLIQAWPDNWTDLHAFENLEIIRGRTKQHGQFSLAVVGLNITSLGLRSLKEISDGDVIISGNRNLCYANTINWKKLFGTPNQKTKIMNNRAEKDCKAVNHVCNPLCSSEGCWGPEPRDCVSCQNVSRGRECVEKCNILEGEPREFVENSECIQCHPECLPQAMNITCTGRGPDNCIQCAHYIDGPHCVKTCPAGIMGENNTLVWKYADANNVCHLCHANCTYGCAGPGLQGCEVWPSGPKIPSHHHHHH

B1: eIg MKU011-A7xhuU3 EGFR arm (antibody, V domains shown)
VH: QVQLVQSGGGVVQPGGSLRLSCAASGFTFSSYGMHWVRQAPGKGLEWVAFIRYDGSNKYYADSVKGRFTISRDNSKNTLYLQMNSLRAEDTAVYYCAKDGNSGYDSMDYWGQGTLVTVSS
VL: QPVLTQSPSASGTPGQRVTISCSGVSSNIGRNYVYWYQQFPGTAPKLLIYATHQRPSGVPDRFSGSKSGTSASLAISGLRSEDEANYYCAAWDDGVTGWVFGGGTKLTVLG
B2: Fab-eIg MKU011-A7xhuU3 EGFR arm (antibody, V domains shown)
VH: B1 VH
VL: QPVLTQSPSASGTPGQRVTISCSGVSSNIGRNYVYWYQQFPGTAPKLLIYATHQRPSGVPDRFSGSKSGTSASLAISGLRSEDEANYYCAAWDDGVTGWVFGGGTKLTVL
B3: Fab-eIg YU250-H10xhuU3 EGFR arm (antibody)
chain 1: B1 VH
chain 2: QSVLTQPPSVSGAPGQRVTISCSGGSSNVGRNGVNWFQHLPEKAPKLLIYYDAFLSSGVSDRFSGSKSGTSASLAIRGLQSDDEADYYCAAWDDSLYSWVFGGGTNLTVL
B4: eIg YU250-H10xhuU3 EGFR arm (antibody)
chain 1: not shown
chain 2: QSVLTQPPSVSGAPGQRVTISCSGGSSNVGRNGVNWFQHLPEKAPKLLIYYDAFLSSGVSDRFSGSKSGTSASLAIRGLQSDDEADYYCAAWDDSLYSWVFGGGTNLTVLGQPKAAPSVTLFPPSSEELQANKATLVCLISDFYPGAVTVAWKADSSPVKAGVETTTPSKQSNNKYAASSYLSLTPEQWKSHRSYSCQVTHEGSTVEKTVAPTECS
B5: scDb-scFv YU250-H10xhuU3 EGFR arm (antibody)
chain 1: B1 VH
chain 2: B3 chain 2
B6: scDb YU250-H10xhuU3 EGFR arm (antibody)
chain 1: B1 VH
chain 2: B3 chain 2
B7: Db3-43xH10-Ig EGFR arm (antibody)
chain 1: B1 VH
chain 2: B3 chain 2
B8: Fab-eIg 2+2 H10x3-43 EGFR arm (antibody)
chain 1: B1 VH
chain 2: B3 chain 2
B9: Db3-43x3-43/FabH10-Fckih EGFR arm (antibody)
chain 1: not shown
chain 2: B4 chain 2
B10: Fab/scFv-Fc H10x3-43 EGFR arm (antibody)
chain 1: not shown
chain 2: B4 chain 2
B11: eIg 1+1 H10x5D5 EGFR arm (antibody)
chain 1: not shown
chain 2: B4 chain 2
B12: eIg 1+1 H10x4D5 EGFR arm (antibody)
chain 1: not shown
chain 2: B4 chain 2
B13: eIg 1+1 H10x3-43 EGFR arm (antibody)
chain 1: not shown
chain 2: B4 chain 2
B14: YU250-A02 Fab-His (antibody, V domains shown)
VH: B1 VH with V5Q, Q6E
VL: B3 chain 2 with D82E, A91S, Y97T, S98G, N106K
B15: YU250-H10 Fab-His (antibody)
chain 1: B1 VH
chain 2: B3 chain 2
B16: MKU011-A7 Fab-His (antibody, V domains shown)
VH: B1 VH
VL: B2 VL
B17: Panitumumab (antibody, V domains shown)
VH: QVQLQESGPGLVKPSETLSLTCTVSGGSVSSGDYYWTWIRQSPGKGLEWIGHIYYSGNTNYNPSLKSRLTISIDTSKTQFSLKLSSVTAADTAIYYCVRDRVTGAFDIWGQGTMVTVSS
VL: DIQMTQSPSSLSASVGDRVTITCQASQDISNYLNWYQQKPGKAPKLLIYDASNLETGVPSRFSGSGSGTDFTFTISSLQPEDIATYFCQHFDHLPLAFGGGTKVEIKR
B18: scDb-scFv YU250-H10xhuU3 CD3 arm (antibody, V domains shown)
VH: QVQLVQSGAEVKKPGSSVKVSCKASGGTFSGYTMNWVRQAPGQGLEWMGLINPYKGVSTYNGKFKDRVTITADKSTSTAYMELSSLRSEDTAVYYCARSGYYGDSDWYFDVWGQGTLVTVSS
VL: DIQMTQSPSSLSASVGDRVTITCRASQDIRNYLNWYQQKPGKAPKLLIYYTSRLHSGVPSRFSGSGSGTDFTFTISSLQPEDIATYYCQQGNTLPWTFGQGTKLEIKR
B19: eIg YU250-H10xhuU3 CD3 arm (antibody, V domains shown)
VH: B18 VH
VL: B18 VL
B20: scDb YU250-H10xhuU3 CD3 arm (antibody, V domains shown)
VH: B18 VH
VL: B18 VL
B21: Fab-eIg YU250-H10xhuU3 CD3 arm (antibody, V domains shown)
VH: B18 VH
VL: B18 VL

The target of one assay is T2, human EGFR on cells (human, UniProt P00533). Put plainly: FACS, FaDu. On the technique in general: Flow cytometry measures light scatter and fluorescence of single cells or particles in a stream.
The molecule B1 returned an EC50 of 3.28 nM.

For the molecule B2, the EC50 was 0.4 nM. Against the preceding molecule, the EC50 is about 8.2-fold lower.

As for B3, it took 0.32 nM to reach a half-maximal effect (EC50).

In another assay the target is T2, human EGFR on cells. Put plainly: FACS, HCT-116.
Turning to B1, the EC50 amounted to 4.28 nM.

Molecule B2 registered a concentration giving a half-maximal response (EC50) of 0.16 nM.

As for B3, a half-maximal effect (EC50) was put at 0.13 nM.

The molecule B4 had an EC50 of 0.46 nM. Compared with the last molecule, the EC50 is about 3.5-fold higher.

For the next assay, the target named is T2, human EGFR on cells. Put plainly: FACS, FaDu. This is another data set of the same source.
For B5, the midpoint of the response, the EC50, lay at 0.74 nM.

Molecule B3 gave an EC50 of 0.76 nM. This EC50 and that of the molecule before are within 1.5-fold of each other.

Consider B6, for which the EC50 came out at 1.68 nM.

On to B4, for which the EC50 turned out to be 2.17 nM. The EC50 values of the last two molecules are within 1.5-fold of each other.

The target in a further assay is T2, human EGFR on cells. Put plainly: FACS, LIM1215.
B5 showed an EC50 of 0.31 nM.

For B6, the EC50 was 1.02 nM.

As to B4, it took 0.85 nM to reach a half-maximal effect (EC50).

The target of a further assay is EGFR-moIgG2a-Fc (human). Put plainly: ELISA. For orientation: ELISA stands for enzyme-linked immunosorbent assay.
For the molecule B7, the EC50 amounted to 0.9 nM.

In the case of B8, the EC50 was 0.5 nM.

With B9, the EC50 stood at 0.1 nM.

B10: the EC50 stood at 0.3 nM. This EC50 is about 3-fold higher than that of the molecule before.

Molecule B11 returned an EC50 of 1.1 nM.

B12 came in with an EC50 of 6.2 nM.

B13: the EC50 turned out to be 0.5 nM.

In another assay the target is EGFR-His (human ECD) (human). Nature of the assay: BLI.
With B14, binding was put at a Kd of 12.9 nM.

The molecule B15 had a Kd of 4.17 nM.

In turn, B16 registered a Kd of 55.8 nM.

Another assay addresses T1, mouse EGFR-His. Put plainly: ELISA, 10 nM.
As to B17, the binding result is “no binding”.

For the next assay, the target named is CD3 on Jurkat (human, UniProt P07766). Put plainly: FACS, Jurkat.
Sequence of CD3 on Jurkat (P07766 23-207): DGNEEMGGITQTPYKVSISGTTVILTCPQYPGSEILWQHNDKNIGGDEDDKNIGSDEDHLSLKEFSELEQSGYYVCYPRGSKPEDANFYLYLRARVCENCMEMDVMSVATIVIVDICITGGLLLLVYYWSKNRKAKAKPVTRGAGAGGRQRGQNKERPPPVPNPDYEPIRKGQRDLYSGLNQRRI
In turn, B18 registered a concentration for a half-maximal effect (EC50) greater than 10 nM.

The molecule B19 yielded a half-maximal effective concentration (EC50) greater than 10 nM.

Consider B20, for which the EC50 amounted to 7.56 nM.

Consider B21, for which the EC50 is greater than 10 nM.

The next assay concerns the target T2, human EGFR on cells. Nature of the assay: FACS, SW620.
As for B1, the half-maximal effective concentration (EC50) was 0.74 nM.

The molecule B2 yielded an EC50 of 0.03 nM.

In turn, B3 yielded an EC50 of 0.03 nM.

B4 came in with an EC50 of 0.21 nM. Against the preceding molecule, the EC50 is about 7-fold higher.
